Laboratory results reported in US20060035332.

B1: hRFRP-3(5) (peptide)
chain: LPQRF
B2: hRFRP-3(6) (peptide)
chain: NLPQRF
B3: hRFRP-3(31) (peptide)
chain: SAGATANLPLRSGRNMEVSLVRRVPNLPQRF
B4: hRFRP-3(28) (peptide)
chain: ATANLPLRSGRNMEVSLVRRVPNLPQRF
B5: hRFRP-3(7) (peptide)
chain: PNLPQRF

Assays:
[1] = target: human OT7T022 receptor (human); test: competition, 125I-Tyr-hRFRP-3(8), pH 7.5, room temperature; conditions: modification not given
[2] = target: human OT7T022 receptor (human); test: competition; conditions: modification not given

Sequence of human OT7T022 receptor (human) (chain, as listed by the source): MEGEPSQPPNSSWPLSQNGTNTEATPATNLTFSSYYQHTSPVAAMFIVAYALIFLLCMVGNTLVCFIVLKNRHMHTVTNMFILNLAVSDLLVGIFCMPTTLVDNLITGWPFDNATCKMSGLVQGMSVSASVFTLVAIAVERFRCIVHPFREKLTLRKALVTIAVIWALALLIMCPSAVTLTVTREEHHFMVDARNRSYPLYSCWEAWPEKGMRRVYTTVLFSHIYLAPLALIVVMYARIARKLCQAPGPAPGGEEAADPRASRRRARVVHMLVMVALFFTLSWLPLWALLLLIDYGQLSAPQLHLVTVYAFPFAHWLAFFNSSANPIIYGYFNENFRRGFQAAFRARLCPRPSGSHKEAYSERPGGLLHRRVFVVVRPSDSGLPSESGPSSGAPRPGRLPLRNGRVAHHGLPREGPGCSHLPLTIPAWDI

Binder | IC50 [1] [nM] | IC50 [2] [nM]
B1 | 2.1 | 
B2 |  | 2.6
B3 | 1.3 | 
B4 | 1.1 | 
B5 |  | 0.62
